# Data from publication PMC4552016, “The Rsb Phosphoregulatory Network Controls Availability of the Primary Sigma Factor in Chlamydia trachomatis and Influences the Kinetics of Growth and Development” (PLoS Pathogens, 2015).
# T1: σ^66, recombinant purified, amine-coupled SPR ligand (Chlamydia trachomatis, UniProt P18333 1-571)
# T1 construct: Sigma66 (RpoD) of Chlamydia trachomatis, cloned from serovar D/UW/CX genomic DNA; may be the same construct as m12 (GST-σ66); also called Sigma66; RpoD; source: PC2 E. coli, pGEX-derived vector, purified
# T1 sequence (looked up): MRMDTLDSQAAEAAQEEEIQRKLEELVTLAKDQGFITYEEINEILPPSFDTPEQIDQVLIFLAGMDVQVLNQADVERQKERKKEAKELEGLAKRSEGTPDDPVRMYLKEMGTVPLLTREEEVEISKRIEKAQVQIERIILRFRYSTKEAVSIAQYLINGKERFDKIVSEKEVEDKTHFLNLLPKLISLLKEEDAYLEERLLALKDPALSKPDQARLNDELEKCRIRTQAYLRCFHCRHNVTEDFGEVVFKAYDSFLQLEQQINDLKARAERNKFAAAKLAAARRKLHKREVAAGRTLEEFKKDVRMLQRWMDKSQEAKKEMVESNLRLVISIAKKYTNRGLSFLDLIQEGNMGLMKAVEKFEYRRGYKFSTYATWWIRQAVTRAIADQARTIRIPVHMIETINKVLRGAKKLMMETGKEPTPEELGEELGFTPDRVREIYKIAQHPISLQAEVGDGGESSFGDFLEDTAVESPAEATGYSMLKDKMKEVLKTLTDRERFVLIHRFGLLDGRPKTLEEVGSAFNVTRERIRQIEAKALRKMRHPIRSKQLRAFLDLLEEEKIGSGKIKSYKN
# B1: RsbV1 S56A (natural protein)
# chain: MSNFQKEEQGQTGILHLQGKLDGVSSPAVQESISESLSNGMKNIILDCGDLDYISAAGIRVLLQSYHQVGKNAGKIALTSVSKTVEQTLYVTGFLSYFKVFDSVNEALQALAKENS
# notes: RsbV1 of Chlamydia trachomatis (serovar D/UW/CX) with the phospho-accepting serine 56 changed to alanine; also called alanine derivative of RsbV1; source: PC2 E. coli, pGEX-derived vector (site directed mutagenesis), purified
# B2: RsbV2 S55A (natural protein)
# chain: MEWIAREYKNIFIVSLKGDMDAVTVPALEEFLTKSIAKGRVNVLLNMEKVFYMSAAGLRTLLSLAKLTQNHNGKLCICCLRDEVADIIRIAGLDKVITIRKAEQESFSDF
# notes: RsbV2 of Chlamydia trachomatis (serovar D/UW/CX) with the phospho-accepting serine 55 changed to alanine; also called alanine derivative of RsbV2; source: PC2 E. coli, pGEX-derived vector (site directed mutagenesis), purified
# B3: RsbWCt, recombinant purified (SPR analyte) (natural protein, Chlamydia trachomatis, UniProt O84553 1-146, looked up)
# chain: MTFSEGEQVFPATLQDLYPMLDFVKRAGVHCNCTQKKLSKLELACEELLLNIITHAYKGLPSTGWIRILCTETPDALLVRITDHGPAFNPITASPDIMRLDLPIEQRRIGGLGIFLAKYSVDVFDYERVNDTNVVTLTLYTKPHNS
# notes: RsbW of Chlamydia trachomatis, cloned from serovar D/UW/CX genomic DNA; also called CT549; source: PC2 E. coli, pGEX-derived vector, purified
# What was measured:
# [1] = molecular target: B3; experiment: SPR; RsbV1, RsbV2 or their S-to-A / S-to-D derivatives immobilized on CM5 chip, RsbWCt analyte (2500nM for the wild-type ligands) with ATP, first and repeated injections; empty reference flow cell; 10mM HEPES, 150mM NaCl, 1mM MgCl2, 30°C; details: both partners purified
# [2] = molecular target: T1, σ^66, recombinant purified, …; experiment: SPR; Biacore 3000, CM5 chip; σ66, σ28 and σ54 amine-coupled to consecutive flow cells, RsbWCt analyte at various concentrations; reference flow cell with immobilized GST; Req as percent of theoretical Rmax; 10mM HEPES, 150mM NaCl, 1mM MgCl2, 30°C; details: both partners purified
binder,measurement,setting,value
B1,binding result,[1],binds
B2,binding result,[1],binds
B3,binding result,[2],binds
